Data as given in patent publication US9999664B2, “HIV-1 gp120 mini V3 loop and uses thereof” (The Scripps Research Institute, priority 2011, dated 2018).

Assays:
gp120 BaL (HIV-1 BaL) = test: gp120 ELISA
[1] = biological target: gp120 JR-CSF (HIV-1 JR-CSF) (UniProt P20871); test: gp120 ELISA
[2] = biological target: gp120 JR-FL (HIV-1 JR-FL); test: gp120 ELISA
[3] = biological target: HIV-1 BaL envelope (Env) on pseudovirus (HIV-1 BaL); test: cell-based or functional assay
[4] = biological target: HIV-1 JR-CSF envelope (Env) on pseudovirus (HIV-1 JR-CSF) (UniProt P20871); test: cell-based or functional assay
[5] = biological target: HIV-1 JR-FL envelope (Env) on pseudovirus (HIV-1 JR-FL); test: cell-based or functional assay
PGT 127 = test: Neoglycolipid microarray binding, PGT 127; details: PGT 127 at 10 μg/ml pre-complexed with biotinylated anti-human-IgG; 5 fmol/spot
Description: (§1) The microarrays (designated N-glycan-related Array Set 1) consisted of NGLs prepared by reductive amination (70) or oxime ligation (71) (Table S5). These were robotically printed onto nitrocellulose-coated glass slides as described (72), each at two levels (2 and 5 fmol/spot) in duplicate. The binding assays (70) were performed at ambient temperature. The PGTs 127 and 128 were pre-complexed with biotinylated anti-human-IgG (Vector) at a 1:3 ratio, w/w, before applying onto the slides at a final concentration of 10 μg/ml. Biotinylated ConA (Vector) was tested at 0.5 μg/ml. Binding was detected with Alexa-Fluor 647 labelled streptavidin (Molecular Probes) at 1 μg/ml. Microarray data analysis was performed with dedicated software. Binding signals were oligosaccharide dose-related. Results at 5 fmol/spot with selected oligomannose NGLs (prepared by reductive amination) are in FIG. 9A, and the full data with the 50 NGLs are shown in Table S6. Included for comparison are the results with human 2G12 (Polymun Scientific) taken from an earlier experiment performed using a different version of microarrays (73). Antibody 2G12 was analyzed at 1:10000 dilution (without pre-complexation), and the binding was detected with biotinylated anti-human-IgG followed by Alexa-Fluor 647 labelled streptavidin.

PGT 128 = test: Neoglycolipid microarray binding, PGT 128; details: PGT 128 at 10 μg/ml pre-complexed with biotinylated anti-human-IgG; 5 fmol/spot
Description: as §1

plant lectin ConA = biological target: T1, plant lectin ConA (Canavalia ensiformis, UniProt P02866); test: Neoglycolipid microarray binding, ConA; details: biotinylated ConA at 0.5 μg/ml
T1 construct: purchased Vector
Description: as §1

2G12 = 2G12 at 1:10000 dilution; earlier experiment, different version of the microarray; cited from earlier work
[6] = biological target: gp120 (ELISA antigen of FIG. 3, strain not stated) (HIV-1, strain not stated); test: ELISA on coated gp120, absorbance at 405 nm

Compound | fold change in gp120 binding (EC50 variant/EC50 WT) (gp120 BaL (HIV-1 BaL)) [fold] | fold change in gp120 binding (EC50 variant/EC50 WT) [1] [fold] | fold change in gp120 binding (EC50 variant/EC50 WT) [2] [fold] | Fold change in neutralization (IC50 variant/IC50 WT antibody) [3] [fold] | Fold change in neutralization (IC50 variant/IC50 WT antibody) [4] [fold] | Fold change in neutralization (IC50 variant/IC50 WT antibody) [5] [fold] | Fluorescence signal intensity 127 (PGT 127) | Fluorescence signal intensity 128 (PGT 128) | Fluorescence signal intensity ConA (plant lectin ConA) | Fluorescence signal intensity 2G12 (2G12) | EC50 (read off the curve) [6] [µg/mL]
PGT 128 IgG variant HC N33A (antibody) | 0.8 | 0.5 | 0.6 | 0.4 | 0.7 | – | – | – | – | – | –
PGT 128 IgG variant HC Y52eA (antibody) | 0.9 | 1.2 | 0.7 | 12.9 | 2.1 | 21.1 | – | – | – | – | –
PGT 128 IgG variant HC L51A (antibody) | 1.5 | 0.7 | 0.7 | 1.2 | 1.2 | – | – | – | – | – | –
PGT 128 IgG variant HC G55D (antibody) | 2.5 | 0.7 | 1.4 | 2.3 | 2 | – | – | – | – | – | –
PGT 128 IgG variant HC W52fA (antibody) | 1.5 | 1.5 | 1 | 29.5 | 3.9 | 34.5 | – | – | – | – | –
PGT 128 IgG variant HC R54A (antibody) | 0.6 | 0.9 | 0.5 | 2.3 | 0.6 | – | – | – | – | – | –
CCCCCCCCCCCCCCCCOCC(COP(=O)(O)OCCNCC(OC1OC(CO)C(O)C(O)C1O)C(O)C(O)C(O)CO)OCCCCCCCCCCCCCCCC (stereo not drawn) [Man2(α2)-DH, Manα-2Man-DH] | – | – | – | – | – | – | — (Signal less than 1) | — (Signal less than 1) | — (Signal less than 1) | 73 | –
PGT 128 IgG variant HC A31S (antibody) | 0.9 | 0.8 | 1.1 | 1.2 | 1.1 | – | – | – | – | – | –
CCCCCCCCCCCCCCCCOCC(COP(=O)(O)OCCNCC(NC(C)=O)C(O)C(OC1OC(CO)C(OC2OC(COC3OC(CO)C(O)C(OC4OC(CO)C(O)C(O)C4O)C3O)C(O)C(OC3OC(CO)C(O)C(O)C3O)C2O)C(O)C1NC(C)=O)C(O)CO)OCCCCCCCCCCCCCCCC (stereo not shown) [Man4aGN2-DH] | – | – | – | – | – | – | — (Signal less than 1) | 26 | 2,885 | — (Signal less than 1) | –
PGT 128 IgG variant HC D27A (antibody) | 1.1 | 1.1 | 1 | 1.6 | 0.9 | – | – | – | – | – | –
PGT 128 IgG variant HC A30S (antibody) | 0.6 | 0.8 | 0.7 | 1.4 | 0.9 | – | – | – | – | – | –
CCCCCCCCCCCCCCCCOCC(COP(=O)(O)OCCNCC(NC(C)=O)C(O)C(OC1OC(CO)C(OC2OC(COC3OC(CO)C(O)C(O)C3O)C(O)C(OC3OC(CO)C(O)C(O)C3O)C2O)C(O)C1NC(C)=O)C(O)CO)OCCCCCCCCCCCCCCCC (stereo not shown) [Man3aGN2-DH] | – | – | – | – | – | – | — (Signal less than 1) | — (Signal less than 1) | 14,192 | 24 | –
CCCCCCCCCCCCCCCCOCC(COP(=O)(O)OCCNCC(NC(C)=O)C(O)C(OC1OC(CO)C(O)C(OC2OC(CO)C(O)C(O)C2O)C1O)C(O)CO)OCCCCCCCCCCCCCCCC (stereo not shown) [Man2GN1-DH, Manα-3Manβ-4GlcNAc-DH] | – | – | – | – | – | – | — (Signal less than 1) | 16 | 575 | — (Signal less than 1) | –
CCCCCCCCCCCCCCCCOCC(COP(=O)(O)OCCNCC(NC(C)=O)C(O)C(OC1OC(CO)C(OC2OC(COC3OC(COC4OC(CO)C(O)C(O)C4O)C(O)C(OC4OC(CO)C(O)C(O)C4O)C3O)C(O)C(OC3OC(CO)C(O)C(O)C3O)C2O)C(O)C1NC(C)=O)C(O)CO)OCCCCCCCCCCCCCCCC (stereo not shown) [Man5GN2-DH] | – | – | – | – | – | – | — (Signal less than 1) | — (Signal less than 1) | 16,390 | — (Signal less than 1) | –
PGT 128 IgG variant HC D72A (antibody) | 0.7 | 0.9 | 0.7 | 1.2 | 1 | – | – | – | – | – | –
PGT 128 IgG variant HC H59A (antibody) | 1 | 1 | 0.8 | 11.5 | 6.8 | 12.4 | – | – | – | – | –
CCCCCCCCCCCCCCCCOCC(COP(=O)(O)OCCNCC(NC(C)=O)C(O)C(OC1OC(CO)C(O)C(O)C1O)C(O)CO)OCCCCCCCCCCCCCCCC (stereo not shown) [Man1GN1-DH, Manβ-4GlcNAc-DH] | – | – | – | – | – | – | — (Signal less than 1) | — (Signal less than 1) | — (Signal less than 1) | 101 | –
CCCCCCCCCCCCCCCCOCC(COP(=O)(O)OCCNCC(O)C(OC1OC(CO)C(O)C(O)C1O)C(O)C(O)CO)OCCCCCCCCCCCCCCCC (stereo not drawn) [Man2(α3)-DH, Manα-3Man-DH] | – | – | – | – | – | – | — (Signal less than 1) | 82 | — (Signal less than 1) | 136 | –
CCCCCCCCCCCCCCCCOCC(COP(=O)(O)OCCNCC(O)C(OC1OC(CO)C(O)C(O)C1O)C(O)C(O)COC1OC(COC2OC(CO)C(O)C(O)C2O)C(O)C(OC2OC(CO)C(O)C(O)C2O)C1O)OCCCCCCCCCCCCCCCC (stereo not drawn) [Man5(α3,α6)-DH] | – | – | – | – | – | – | — (Signal less than 1) | — (Signal less than 1) | 15,291 | 34 | –
CCCCCCCCCCCCCCCCOCC(COP(=O)(O)OCCNCC(NC(C)=O)C(O)C(OC1OC(CO)C(OC2OC(COC3OC(CO)C(O)C(O)C3O)C(O)C(OC3OC(CO)C(O)C(O)C3O)C2OC2OCC(O)C(O)C2O)C(O)C1NC(C)=O)C(O)CO)OCCCCCCCCCCCCCCCC (stereo not shown) [Man3XylGN2-DH] | – | – | – | – | – | – | — (Signal less than 1) | — (Signal less than 1) | 977 | — (Signal less than 1) | –
PGT 128 IgG variant HC K100gA (antibody) | 28 | – | 22.3 | 1700 | 142 | > 3000 | – | – | – | – | 1
PGT 128 IgG variant HC L100A (antibody) | 1.3 | 1.7 | – | 2 | 0.8 | – | – | – | – | – | –
PGT 128 IgG variant HC R100aA (antibody) | 1.5 | 0.7 | 1 | 2.1 | 1.3 | – | – | – | – | – | –
